Laboratory results from article PMC6232157, “Human adipose glycerol flux is regulated by a pH gate in AQP10” (Nature Communications, 2018).

Experiments:
His80 = His80 (UniProt position 80, NVSGAHLNPAF); experiment: kinetics (stopped-flow fluorescence transport assay in intact yeast cells); settings: 23 °C; not stated (50 mM K-citrate buffer); 50 mM K-citrate with 1.4 M sorbitol; osmotic shock with 2.1 M glycerol in 50 mM K-citrate; Channel in the yeast plasma membrane, glycerol gradient applied; pH-gated closed (high pH) to open (low pH) transition
[1] = biological target: the molecule itself; experiment: crystal structure; hanging-drop vapor diffusion at 18 °C, 100 mM MES-NaOH pH 6.0, 19 % PEG 2k MME, 5 % glycerol; entire tetramer in the asymmetric unit; 2.3 Å

“Aquaporin-10 crystallisation construct (hAQP10cryst) (Homo sapiens; del1-10;del278-301)” was tested, and the pKa (His80) was 6.00 ± 0.13.

“Aquaporin-10 (hAQP10), full length (Homo sapiens)” gave a pKa (His80) of 5.92 ± 0.20.

B1: human aquaporin 10, crystallized variant hAQP10_(cryst) (domain or fragment, UniProt Q96PS8 11-277, looked up)
chain: MGHLRIRSLLARQCLAEFLGVFVLMLLTQGAVAQAVTSGETKGNFFTMFLAGSLAVTIAIYVGGNVSGAHLNPAFSLAMCIVGRLPWVKLPIYILVQLLSAFCASGATYVLYHDALQNYTGGNLTVTGPKETASIFATYPAPYLSLNNGFLDQVLGTGMLIVGLLAILDRRNKGVPAGLEPVVVGMLILALGLSMGANCGIPLNPARDLGPRLFTYVAGWGPEVFSAGNGWWWVPVVAPLVGATVGTATYQLLVALHHPEGPEPAQD
notes: human aquaglyceroporin AQP10, truncated in the termini (Δ1–10, Δ278–301): the first 10 and the last 24 amino acids removed; codon-optimized cDNA; His8 stretch fused directly to the C-terminus with no protease site; also called human AQP10; source: S. cerevisiae PAP1500, purified (IMAC, SEC); not shown: His8, C-terminal, kept
B1 was tested, and the “stoichiometry N” value [1] was 4.
